The data set in a line: soluble on expression in E. coli; label from the status in PepcDB or PDB records.
In the case of “MRGSHHHHHHTDPALRASVRLVLAKGREKSLLRRHPWVFSGAVARMEGKASLGETIDIVDHQGKWLARGAYSPASQIRARVWTFDPSESIDIAFFSRRLQQAQKWRDWLAQKDGLDSYRLIAGESDGLPGITIDRFGNFLVLQLLSAGAEYQRAALISALQTLYPECSIYDRSDVAVRKKEGMELTQGPVTGELPPALLPIEEHGMKLLVDIQHGHKTGYYLDQRDSRLATRRYVENKRVLNCFSYTGGFAVSALMGGCSQVVSVDTSQEALDIARQNVELNKLDLSKAEFVRDDVFKLLRTYRDRGEKFDVIVMDPPKFVENKSQLMGACRGYKDINMLAIQLLNEGGILLTFSCSGLMTSDLFQKIIADAAIDAGRDVQFIEQFRQAADHPVIATYPEGLYLKGFACRVMGLCGR”, the “soluble on expression in E. coli” value is recorded as “soluble”.
The same measure for “MRGYLGKAQQNALINEAQSYPLTRPQIQVFGRYHAIPRQQVWYGDLGCDYLYSGLFIRALPWPKYLQKLRDKLQRDFELGSNGVLVNRYADGQDCMGAHSDDEPEIAHGSDIASISLGATRDFVIKHKHSKQKCCISLHSGDLLIMHWPMQRDWLHSVPKRLKVTEPRWNYTFRQLVVNYHGLEHHHHHH”: “not soluble”; for “MRIEVKLLPLKDNPILPFNYNYEVYSQILEKVNSIEPTIAKLLSSPHGFWTFSRIIVRKRKILPDKGIEILSDDVSLYISSSNEDIIRAIAEAVEKSPEFKIGELSFLVGDIKAIKVKELGKENVFSTLSPIVVRTVKFEGNKLRHWDLYPHDELFMDRLRKVMILRYSEVMGETPKDRDFTIEVLKFKPTRLMVGSSYIRGSLMVFRYAGSEEIARFGYENGFGEKTGLGFGMVKLIE”: “soluble”; for “MRILFVAAGSPATVFALAPLATAARNAGHQVVMAANQDMGPVVTGVGLPAVATTDLPIRHFITTDREGRPEAIPSDPVAQARFTGRWFARMAASSLPRMLDFSRAWRPDLIVGGTMSYVAPLLALHLGVPHARQTWDAVDADGIHPGADAELRPELSELGLERLPAPDLFIDICPPSLRPANAAPARMMRHVATSRQCPLEPWMYTRDTRQRVLVTSGSRVAKESYDRNFDFLRGLAKDLVRWDVELIVAAPDTVAEALRAEVPQARVGWTPLDVVAPTCDLLVHHAGGVSTLTGLSAGVPQLLIPKGSVLEAPARRVADYGAAIALLPGEDSTEAIADSCQELQAKDTYARRAQDLSREISGMPLPATVVTALEQLAHHHHHH”: “soluble”.
With “MRILGLDLGTKTLGVALSDEMGWTAQGIETIKINEAEGDYGLSRLSELIKDYTIDKIVLGFPKNMNGTVGPRGEASQTFAKVLETTYNVPVVLWDERLTTMAAEKMLIAADVSRQKRKKVIDKMAAVMILQGYLDSLNLEHHHHHH” the entry was “not soluble”.
As for “MRILIPFKANNPKSRLSSILSEEERKELARLMLLDVIDAAKPFGEIKVVCPSELDVEGVEVVVDTSDLNTTVNKVMDEAPLAVIMSDLPLLSEEVLKRFFETEGDVVVAPGRKGGTNMLLVRKRGFRVSYHFGSFFKHLEMARKMGMKAKIFDSFYSSVDIDDESDLLELMMHGSGKKSYEFLRKIGFSVSFEETPRLERRVFMQP”, the “soluble on expression in E. coli” value is “soluble”.
Turning to “MRINFEKANSNHINIIFSWLKEPFIQEFWDNTQAHKDDILNFINGRTEPSSYADGKYVYWIASGNGHPFAMLMTIQETSEDEIDDIKLINLSKTGHSYGIDYMIGDKNYFGIGYGARTLIEFIDFFIKEVDPKADTFLIDPASDNPRAKHVYIKAGFEYVADFLMSGDVSGAGKLHHLLIKRIGLIK”, the “soluble on expression in E. coli” value is given as “not soluble”.
With “MRIPRIYHPISLENQTQCYLSEDAANHVARVLRMTEGEQLELFDGSNHIYPAKIIESNKKSVKVEILGRELADKESHLKIHLGQVISRGERMEFTIQKSVELGVNVITPLWSERCGVKLDAERMDKKIQQWQKIAIAACEQCGRNIVPEIRPLMKLQDWCAENDGALKLNLHPRAHYSIKTLPTIPAGGVRLLIGSEGGLSAQEIAQTEQQGFTEILLGKRVLRTETASLAAISALQICFGDLGEAAAAAALEHHHHHH” the entry was “soluble”; with “MRIRIRVLSHFSSALGFDESSFSIGEGITFAELRSKLIEQFSAFVRPIEIGMYVNMKPVPDDYTMMDGDIVYVFPRSSTP”, “not soluble”.
Consider “MRITIYTRNDCVQCHATKRAMENRGFDFEMINVDRVPEAAEALRAQGFRQLPVVIAGDLSWSGFRPDMINRLHPAPHAASA”, for which the “soluble on expression in E. coli” value was “soluble”.
As to “MRITQEQAEAIFCEDLKQFGKTVEQSVKVCLTDAQIAALVSFCYNVETQAFCKSTLLKKLNNGAYESVPAELQKWNKVGGKAIQGFVNRRAAEAGLWAKGSYVCFNTQRVETKNTIGLLKIETLAPMIGSCSGLGGLLVGNGPLPALWF”, the “soluble on expression in E. coli” value is “not soluble”.
With “MRIVAVTDIHGNMASTVALANILKKIEAELLLIAGDITHFSGGEIAKQILEPLLKLGVRVLAVMGNCDGKDVPKVLDELGINVHNARVEVKKVGVVGFGGSSVTPFSTIWEFSEEEIYSSLKRNYRSGDIVLTHAPPYRTRIDKTFSGIHAGSKGLRKFIEEEQPPICICGHIHEARGIDKIGETLVVNPGPLSRRYYAVIDSETWEVKLERLLEHHHHHH” the entry was “soluble”; with “MRIVTAAVMASTLAVSSLSHAAEVGSGDNWHPGEELTQRSTQSHMFDGISLTEHQRQQMRDLMQQARHEQPPVNVSELETMHRLVTAENFDENAVRAQAEKMANEQIARQVEMAKVRNQMYRLLTPEQQAVLNEKHQQRMEQLRDVTQWQKSSSLKLLSSSNSRSQMAGDPLEHHHHHH”, “not soluble”.
Regarding “MRKELVFVLLALFLCAGCNGNKKKMNGEHDLDAANITLDDHTISFYYNWYGNPSVDGEMKHWMHPIALAPGHSGDVGAISGLNDDIACNFYPELGTYSSNDPEIIRKHIRMHIKANVGVLSVTWWGESDYGNQSVSLLLDEAAKVGAKVCFHIEPFNGRSPQTVRENIQYIVDTYGDHPAFYRTHGKPLFFIYDSYLIKPAEWAKLFAAGGEISVRNTKYDGLFIGLTLKESELPDIETACMDGFYTYFAATGFTNASTPANWKSMQQWAKAHNKLFIPSVGPGYIDTRIRPWNGSTTRDRENGKYYDDMYKAAIESGASYISITSFNEWHEGTQIEPAVSKKCDAFEYLDYKPLADDYYLIRTAYWVDEFRKARSASEDVQLEHHHHHH”, the “soluble on expression in E. coli” value is “soluble”.
With “MRKIGLLFITIFCLLACKNNSSRISLEGEIKGLTNDTLYLYGTDALYDRIDTIYAEKGKFSYNLNIDSTVIDTLTTAVLLINGHVEYPVFLDKGNQITIKGNIDDLSYLDINGNEPNTSLSLFMKEQRGLGSASDKMMQEKAETFIRQHNSSLASVYLLDKYFVQTPQPDYIKIKEITEAMTGALLDRPYIENISDYIDQLEKVTVGKSAPYFSLPNEKGEKLSRSAERFRNRYLLLNFWASWCDPQPEANAELKRLNKEYKKNKNFAMLGISLDIDREAWETAIKKDTLSWDQVCDFTGLSSETAKQYAILTLPTNILLSPTGKILARDIQGEALTGKLKELLKTEEKKTGKSIR” the entry was “not soluble”; with “MRKIIVGAFVSLDGIMQAPGGPHEDPVGGFDHGGWAAPYFDETMGQAVDEMFSKPFDLLLGRKTYDIFAAHWPYAGPDDPIGPLFDRITKYVATRNPDLRLDWQNSRTLGSDPVAMLKKLKSEEGPDLLTQGSTDFLQTLFSNDLVDEMYISYFPVVLGKGKRLFGHGAMPMAMKLLGSKVSGTGVTANKYVRSGPVVTGSFEFEQPTEAELERRRKLS”, “soluble”.
With “MRKIQVGVTGMTCAACSNSVEAALMNVNGVFKASVALLQNRADVVFDPNLVKEEDIKEEIEDAGFEAEILAEEW” the entry was “soluble”; with “MRKLVVGSRRSKLALTQSQQFIDKLKAVEPNLEIEIKEIVTKGDRIVDKQLSKVGGKGLFVKEIQHELFEKNIDMAIHSLKDVPSVIPEGLTLGCIPDRELPFDAYISKTHTPLSQLPEGSIIGTSSLRRGAQILSKYPNLEIKWIRGNIDTRLEKLQTEDYDAIILAAAGLRRMGWSDDIVTSYLDRDTLLPAIGQGALGIECRSDDEELLTLLSKVHNDEVAKCVTAERTFLAEMDGSCQVPIAGYATISDQNEIEFTGLIMTPDGKERFEYTMNGTDPVELGKTVSNKLKEQGAYEIIKRLNEQH”, “not soluble”; with “MRKNVSDLEYTTWFAPVKPLGVQEGSLLLGVRNSFTKDWFRDHYLELLLAALRSLGAEHPQVEFQVLPAAQDALLLPNDPPPAPEAAAPTPKTKAAPTPPPSTPGDNRKTLNPKYTFENFVVGPNNNLAHAAALAVAESPGKAYNPLFIYGDVGLGKTHLMHAVGHYLAERFPEKRIEYVSTETFTNELINAIRDDKTTQFRNRYRSVDLLLVDDIQFLAGKERTQEEFFHTFNALYESNKQIILSSDRPPKDIQTLEGRLRSRFEWGLITDIQSPEYETRVAILKMNAEQGHITIPQEVLELIARQVTSNIRELEGALMRVVAFASLNNVPFSRAAAAKALSNVFAPQEAKVEMTDVLRQVAAHYGTTPDLIRGSGRARDIVVPRQVAQYLIRALTDHSLPEIGQFFGRDHSTVMHAVSKITEQMGKDPELAATVNTLRNRIQGKEEEEEVGALEHHHHHH”, “not soluble”.
The same measure for “MRKPILAALTLAGLGLAQEFITIGSGSTTGVYFPVATGIAKLVNDANVGIRANARSTGGSVANINAINAGEFEMALAQNDIAYYAYQGCCIPAFEGKPVKTIRALAALYPEVVHVVARKDAGIRTVADLKGKRVVVGDVGSGTEQNARQILEAYGLTFDDLGQAIRVSASQGIQLMQDKRADALFYTVGLGASAIQQLALTTPIALVAVDLNRIQAIAKKYPFYVGFNIPGGTYKGVDVTTPTVAVQAMLIASERLSEETVYKFMKAVFGNLEAFKKIHPNLERFFGLEKAVKGLPIPLHPGAERFYKEAGVLK”: “soluble”; for “MRKWQCVVCGFIYDEALGLPEEGIPAGTRWEDIPADWVCPDCGVGKIDFEMIEIA”: “soluble”.
With “MRLEIPNHTERFGVVRLHEVQRILELDSGRVRDESPAVGLRRLDDADLRDVLEQTAIVVPTRNERLKLLEGVLSGIPHEALILVASNSSPDRFQMERDLLEEFAHLTERPALIFHQKDPALAEALRAGGYPHPIGEDGLVRSGKAEGMILALVFAALSGRRYVGFIDADNYFPGAVWEYVRAYAAGFLMAKTPFAMVRILWRYKPKLTEDEGVVFRRYGRVSERNNRALNQLIGGVSGFETDVVKTANAGEHAMSLGLALRLPLASGYAVEPQELVSLLELYGGVFPLEDEEVLQHGVEIFQIETRNPALHENKGDEHIRDMLLACLATVYHSKLATEEVRQSVLEELQAAGALAPGEEPPPPVLYPPLSSLDLQAVRKALRGHFSRFRVP”, the “soluble on expression in E. coli” value was “soluble”.
As for “MRLEVFCEDRLGLTRELLDLLVLRGIDLRGIEIDPIGRIYLNFAELEFESFSSLMAEIRRIAGVTDVRTVPWMPSEREHLALSALLEALPEPVLSVDMKSKVDMANPASCQLFGQKLDRLRNHTAAQLINGFNFLRWLESEPQDSHNEHVVINGQNFLMEITPVYLQDENDQHVLTGAVVMLRSTIRMGR”, the “soluble on expression in E. coli” value is “soluble”.
The same measure for “MRLFHTSDWHLGQNLHGQERDFEHACFLTWLLARLAERQPDVLLIAGDIFDTVNPPVKAQERLYDFIVNAHEQQPLLTIVMIAGNHDSGSRIELPAPLMRRLRTHALGRVMWLNDGVLDAERLLLPLPDANGDIKAWCLALPFLRPAEVTGPTLGDDYLRGIGRVHELLIDAANLKRQPGQALIAISHAHMAGGSVSEDSERSLIIGNAEALPASLFGPSITYVALGHLHKPQRVNGEERIRYSGSPIPLSFSEIGYQHQILEINCDGDTLTSVEPCLIPRAVNLQRLGPAPLADLLVQLKSLPDIDLLADPDRQPWLEVRVRLDEPQPDLRNQIETALQGKAVRLVRIGAEYAGKGSADGSDGEAGLIELDQLTPQELFSRAWQDNFGSEVDEQTLTDFATLLREVQQESEQP”: “not soluble”.

Values taken from the DeepSol protein solubility set.
